Data on 2 substances can be found in PMC6713497.

What is called stoichiometry N is the number of molecules, sites or subunits per partner or assembly.

Assay [1] addresses AxqNOR Val495Ala-BRIL (Alcaligenes xylosoxidans). In words: cryo-EM structure; single-particle cryo-EM of detergent-solubilised qNOR-BRIL (50 mM tris, 150 mM NaCl, 0.05% DTM; wild type pH 7.0 at 3 mg/ml, Val495Ala pH 7.5 at 5 mg/ml), C2 symmetry imposed.
Assay [2] concerns the target qNOR from Neisseria meningitidis (NmqNOR), wild type (Neisseria meningitidis). Put plainly: cryo-EM structure; cryo-EM dataset of wild-type NmqNOR, 9 Å reconstruction (fig. S1); conditions not given.

In assay [1], AxqNOR Val495Ala-BRIL (enzyme) gave a stoichiometry N of 2.

Take “qNOR from Neisseria meningitidis (NmqNOR), wild type (enzyme)”: the stoichiometry N in assay [2] was determined as 2.
